Assay: soluble fraction after stress (log2 fold change); higher = more stays soluble; pooled small domains, quantitative proteomics
Settings: stress: pH 4
Outline: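 Aggregation propensity is estimated from the fold change in each domain's soluble amount after acid stress. Pooled small-domain libraries were stressed at pH 4, and higher log2 values mean more stayed soluble.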

First: HMESWEDSNIANEFKSTIKIAEKRLAEGGDHPELLEKLEALKQAIINENQTEASKLDDQVNDILFDMDD
Second: HMDTAGSVAIVSKSVIENGFGEIKYKGTYFKAQSDVYIPKDQMVKVIGKGDEQGSFLIVEKLN
The “soluble fraction (log2)” value of the first is lower: -0.558 for the first, -0.0172 for the second.

First: HMTETEIVIGGKYRHYKGGEYELVSIVKHSETLEELVIYKSLSTGEMWARPKSLFVGLVDGQPRYTL
Second: HMTKQIILVHVAGKVKKPDVYPLLQGSRVADAIKAAGGAKKGVELNDINLARVLIDGEQVFVGYVPE
The “soluble fraction (log2)” value of the first is lower: -1.39 for the first, -0.277 for the second.

Compared with “HMKDRNISSSVLEILSKDPDHTYNYKQIAALLGVKDAFIRKRIVTLLAQLAKDGHLDEISRGKYQIK”, “HMDGVLLDHLDGFVTTRRGVEAWLEQPTSFNKPSILLVAADGESTRRAIPSIAFGYDFASRHDIPAYDAG” is lower in “soluble fraction (log2)” value: -0.0199 for the first, -1.29 for the second.

Going from “HMVMTTVPEVLGMDISKAASLLTGKNLDYDYDLVESDKPKDQVIEQDVVKGTEVPEGTVIHLKVSKGPA” to “HMKISDMIETNLKFLRGKHSISQAELAESLGIPRTTLSAYERGFVEPNIELMLKMAKYFNVSLDDLIAYN”, the “soluble fraction (log2)” value falls from -0.0925 to -1.3.

Compared with “HMSMSVLFSELDQKDAGVIVEKLKERKIPYELQSGGSAIMVPANVLHETRLQLAAEGLPQSS”, “HMIDAKTTLQELTQKSGKKPEYRLIKIEGPDHLRRFTVEVFIDGQSMGTGTGHSKKEAEQNAANFALKNLQ” is higher in “soluble fraction (log2)” value: 0.0876 for the first, no less than 0.43 for the second.

Going from “HMAVPAALVQAWLELSRRMVAGTQDVGERFAEEARKMHYGETEDRGIRGQATLTEVRDLLDEGIEVLPLLL” to “HMEKLIRIKRLIKQLNEYRDSYYNEARPVVSDAAYDKLFDELSELEKETGVVYANSPTQTVG”, the “soluble fraction (log2)” value rises from -0.725 to -0.457.

First: HMAVDVNKATAAELDSIKGIGPAISAKILEEKKKGGNFKDWNDLVTRVSGVGEANAAKFSSEGLTVGGAS
Second: HMIDFDHADIERLWNSIIHYVPERQKLDFAIDFIKSLEDIGVEHDVLRGSAELDPKLEEAVNTVFE
The “soluble fraction (log2)” value of the first is higher: 0.235 for the first, -0.315 for the second.

First: HMDLIEVLAQDTIKKIYNTYVAYKNKVDVFYVAFSGGKDSIVTLDLVQRTLPHNEFKVLFGDTGM
Second: HMPTMTDIPIKIIRSRRRTLAIEVREGGEVIVRAPLYSRKAEIDAFVKAHENWIITKYNLMITKQN
The “soluble fraction (log2)” value of the first is lower: -0.48 for the first, 0.352 for the second.

“HMSTEPLALVGKTGIAATVLRPSGRIEVDDKYYDAVSLGAFIEKGEMVNIVKYENLQLYVAKL” and “HMNAQLTTQEAADLLNVSRPHLVKLLEDGELPFLRTGKHRRVRLADLLQFKNAREQASVQAMDELSRQAQ” are within 0.2 log units of each other in “soluble fraction (log2)” value: -0.0114 for the first, -0.177 for the second.

Compared with “HMNLYENLATHVKNAIRQGVYQPGDRLPSVRRLSEQHRVSQNTAVSAYRLLESHGWLEARPQSGFFARHP”, “HMSESLRDLVLSLIPEDGSTIGNRALITRLREDLPDLTDEDYHEVRDQLIAEGVLAKGRGQGGSVARANG” is lower in “soluble fraction (log2)” value: 0.297 for the first, 0.0415 for the second.

First: HMKLSKLTKPELDEIFRNANFTEEEEKVFWLLARGKSLEQISAKTFLPIATVNRRVKSIKDKIG
Second: HMSSSYTEMQLERFKELLNKETLLSSEKNELKNLISDFDKISEIVSPLVVGAYLQLKNEHIETINSLG
The “soluble fraction (log2)” value of the first is higher: 0.34 for the first, -0.846 for the second.

Compared with “HMSGDYRALYSSLPPERASSVVDALNVAGIPYRIQDSTGAIMVPAEQIYDARIRLAGQGLGK”, “HMEEYLENLTQSKLLHMLDQLSPAYKTVFTLFVLDELSHEEISKMLNISIGTSKSNLFRARKVMRVLMESE” is lower in “soluble fraction (log2)” value: 0.0695 for the first, -0.283 for the second.

First: HMGLKDTEVYMPDVRGLIEEEAQTKLKASFLTMKVSYTSSDEVKKGYVISQAPSADSVVLKGASVTVIVS
Second: HMDLPDYYFRVRENGAVVFRVGTENRQRRIEMVEIATVNVKNGNIKPHGEVDLTKADRLAIGEWLAARQAQ
The “soluble fraction (log2)” value of the first is higher: 0.112 for the first, -0.27 for the second.

Compared with “HMEDNYYENKINYLFGYLDEADKEISVNSILDFHLAHRTNPEFVFEPKKNTNPLIWKYLSNSNLLY”, “HMSYEDLIQAVSGHFGIEIRALLSEDRKKENMIPRQVAMYLLKNKLHYTYERIGNIFSGRNHTAVMYSV” is lower in “soluble fraction (log2)” value: 0.0187 for the first, -0.403 for the second.

Going from “HMAGTAMRATTAVNVRSGAGTNYSRIGLLQAGEQIQALSSKNGWTQVSYKGRTGYVASAYLASL” to “HMGTVFTDIMTDIASGKFPNVFPDSLEAQIQKNVTMAPDKLSATLQYGDKSVILPTTKGKEAAEAAVKAA”, the “soluble fraction (log2)” value falls from 0.402 to -0.648.

Compared with “HMEDADERRALEVLNQLLDLPEREQEAALAALSLPPALARRVRSLLSVQTRAADLFDTAPSP”, “HMLLQTAVISTDIVNMRAEPTTNSSVIRKLTKGSDITINQEKDGWYKISDDQGNSGWIVTWAAKPT” is higher in “soluble fraction (log2)” value: -0.6 for the first, -0.0639 for the second.

First: HMGVGITAPLAGNIFKIVVQPGDVVASGDVVLVLEAMKMETEIRAASGGTVSQVLVREGDAVDAGHTLITL
Second: HMEKYIVEAEEQGKRLDMYISSKDEELTRTSAQRLIEQGDILVNNKKVKVAYKVSEGDIIAVEKQ
The “soluble fraction (log2)” value of the first is lower: -1.49 for the first, 0.00594 for the second.

First: HMHTGEVVNGKVIDVKEDQIILNVGFKSDGIITRSEYSNDNSLDLRTVVNVGDDMEAKVLKINDGEGQVLL
Second: HMLEDIDNSIKKEIILEHYDKMLEFHGDYGAIIFRKLLHAYSKGYTGANEFRDLVNQISDKNIMRDLIESF
The “soluble fraction (log2)” value of the first is higher: -0.343 for the first, -1.17 for the second.

“HMRESPYRRVAKFLLLIGTAEAAKIVSRLDQDQVEKVMLELSGIRSVPRDEATVILAEFESLLQQAR” and “HMKTALQENVRAYRLERKWTQQALAEALEVSVGAVSKWESGVSRPELETLMRLAELFGVSTDALLGF” are within 0.2 log units of each other in “soluble fraction (log2)” value: -1.2 for the first, -1.09 for the second.

“HMQDSSGENNPQSKLTQQQVDLLMKDLKETNVEFDKLAEKYNVSIKTIRNVNTGIAWRKNDITYPIREP” and “HMNYTQAQIDRANAVSLEDFLRTQGETLIKSGREYRWKEHDSLTVRGNKWFRHSQSKGGYPIDFVMEFTA” are within 0.2 log units of each other in “soluble fraction (log2)” value: -0.255 for the first, -0.0561 for the second.

“HMITNESEIERIVEAIISKNPESIAQYRSGITKVLGFLVGQVMKETKGRANPALVNRIIISKME” and “HMPKKLIWERTTSKLQLYITQDRYELKTPLMTIPFTSKSKMMVYLQQRYHLDMQEYRQIYDAG” are within 0.2 log units of each other in “soluble fraction (log2)” value: 0.242 for the first, 0.0815 for the second.

Compared with “HMPDAENFRYRVPYTTEQNRLQYYEGDIRAENADKARDQVMQDAQKYFAQNTAFTPNYIDTDIISLD”, “HMKEVVKVTITPSEKLKSQYPDALVSIDGKFYDLGILNNPVEFYMDKDHKISIIWSTAELVESFRI” is higher in “soluble fraction (log2)” value: -0.615 for the first, -0.248 for the second.

Compared with “HMGVRLAPEVDRIPYGQMHPNLKKVKDLYEASYKAYVQALSSGNQALAKEKLEEFQSTKARYQRALSAYT”, “HMLDPYNVLGVPRDAGMDEIKKAYRKLSRTYHPDANIDNPNKAQAEEKFKQIQEAYQQIVKERTE” is lower in “soluble fraction (log2)” value: 0.195 for the first, -0.152 for the second.

“HMDTLRPLGRYQNVHLTKQELTALQSEFSDWSERIERLSSYMASTGRKYQNHAATIRLWAEKDK” and “HMRGGKGTVPDVTGMDAAAAVRILEKAGMNVAYIRGAGFVAEQTPAAGTKLKKGDKAYITLSWK” are within 0.2 log units of each other in “soluble fraction (log2)” value: 0.161 for the first, 0.181 for the second.

Going from “HMSENLESEFFGIVVITQTLLQKELRDKPMTVELIRKTVEDVMSKHYSDSSVDKAKVEEELIRRFSTW” to “HMNYSIVNVGFNNKSLFLRSAPGYSASRLLLPFATERAFVRETLSNGWSRVIVRGTEGYLPTEYVAD”, the “soluble fraction (log2)” value rises from -1.75 to -0.553.

Compared with “HMPAKIIKKSFVYNPIHRDTEYLAQFLQGEGQVSASGDKLVYYGTVEDISRIKSVLQSVDTPS”, “HMFDFGNHLRMLREKHGISQEELGRRVGRAGSVISNYENNIKIPTLDVLTTMARIYDVSLDYLVG” is lower in “soluble fraction (log2)” value: -0.434 for the first, -1.06 for the second.

First: HMGPPAVGAKLQVLRQARKLSLDELSRRAGVSKSMLSQVERNLANPTVAVLWRLATALGVGLADFLSP
Second: HMGPLDIAQLKSDFLGGDAQLARRAWDQLATKAGDEGRDFLISSLGSSDPQIRNRVALGIHES
The “soluble fraction (log2)” value of the first is lower: -0.524 for the first, -0.152 for the second.

Going from “HMPSGLFEPIKKSELSIESIDLLKDQIRAFKQADIRITFGFLLDLITKGENPAYVNASKLFEQAWER” to “HMLTLSGPEHAVVRALWPEPELDFDVLIRKTGLPSAQLMTLAMQLEMKKIIRRLPGRRLALMDDIRR”, the “soluble fraction (log2)” value falls from -0.241 to -0.716.

“HMNGKWKLRIIKELLHSNIRFGQILKNIPDISPKVLSQQLKEMEEDGIIERIVISEMPPNVEYVLTDMGE” and “HMPMNISDIIKQAREELGMTQEDLAERLEVSRQAVSKWELGASVPSPENLRLLEELLGVELPAP” are within 0.2 log units of each other in “soluble fraction (log2)” value: -0.458 for the first, -0.635 for the second.

Compared with “HMGVEKHLRITGTSTVSWKDAIVQAVAEASKTIDYLSNVKIIEQRARIDGKKLVEYFVDLDLSFVID”, “HMIKITLGWVISVRRHDLGYTQHKMARAVGISDLTVSRIESDDGITPDNNTLRKIAEYLKIDYNSLLTLK” is higher in “soluble fraction (log2)” value: -0.38 for the first, -0.175 for the second.

Going from “HMEIALNDKQILLFSNKLVHEPSFASKYSKVGESYDDFAIRISENLTIPDKVQEYLPYLEKVGFNI” to “HMLPLPRFASLDSSEANLRAGPGKDYPILWVYQRKGLPVEIIQEFDTWRRIRDRDGTVGWVQQNLL”, the “soluble fraction (log2)” value falls from -0.191 to -0.568.

Going from “HMAMNLQETVLMQLRDLILRGTFEPGQRLSEQPLAERLKASRTPVRSALVTLEQEGLIEASETGKYLVRQ” to “HMIYKLTLLRDLPEAKAGFDFYLRGGLASHDGEEWFSWVTREPIYARLYWLYVEKREEWVLVEETDI”, the “soluble fraction (log2)” value falls from -0.845 to -2.47.

Going from “HMVVNERIKKLRRSLDLTQQEFADRIGVKRNTIANYEIGRNEPIDSVLELIVREFGVSKQWLLDGTGEMF” to “HMKEVKRDQVIEAARKLFHQFGFKKVSMDEIAKEAGVTKKTIYMYFESKEELLKYFIQEEISN”, the “soluble fraction (log2)” value falls from 0.0586 to -0.44.

First: HMPEMAIRTLRLRNQRGAAVAAEWSRITASLLELRQVEFVNPVDQLIVLKGPEPWAGVAEELVRQLDV
Second: HMETWKLYKRAYKKYYARYMKGNMSEADFKAWATQAAADRDAAIEQITPEIDAALKAQIIEQLREKLNR
The “soluble fraction (log2)” value of the first is lower: -1.02 for the first, -0.134 for the second.

Compared with “HMTKQRSAIMNLLAERNTPLTAEEIGEAIAPSYPKLALSTVYRNLELFTNAGLLEKSFFQDGITRYSLTK”, “HMSLTAQVFTDRGKVLLSENKFTEAIDQFTKALAMDKVYIEALNRRIEAYQHLGLTELAAKDEALLGTL” is lower in “soluble fraction (log2)” value: -0.242 for the first, -1.01 for the second.

“HMDKGMQTMIDNLHKNTGKTLEEWIALVNRANFAKHGEVISFLKEKHGLTHGYANLVAHRLK” and “HMNVYAGTMINVVGLQVEDAASRLRGLFYSVKIVEEESQEPDGKVLRQNIAEGTKDLEAWTLVELTVSKYV” are within 0.2 log units of each other in “soluble fraction (log2)” value: -0.361 for the first, -0.448 for the second.

Going from “HMRESRLFQILYQLLTKKKVTAANLAKQFEVSVRTIYRDIDALSSSGIPIYASQGKNGGIQLDEDF” to “HMQSRYALLAGMLRARITEGDWVPGSAIPAETVLAKEHGVALGTMRQAIALLVSQGLLERQHGRGTFVRS”, the “soluble fraction (log2)” value rises from -0.999 to -0.0211.

Going from “HMKETLSDTVSRKLEDMITTQMKAGNRLPTEMVLAEMYSVGRSTIRESLKALSSKGLIVRKKDGTFVSDRV” to “HMDSIGTQIRKLREEAEMPLRKLSALLDIDQSTLSKIERDERRANTQMIEQIAKIFKVNKEQLLVA”, the “soluble fraction (log2)” value falls from 0.22 to -1.98.

Source: the domain aggregation screens of Martell et al. (2025)
